# In article PMC9360328, “Tenuous Transcriptional Threshold of Human Sex Determination. I. SRY and Swyer Syndrome at the Edge of Ambiguity”:
# B1: 15-bp consensus SRY site, FRET-labeled (dsDNA)
# DNA 1: TCGGTGATTGTTCAG
# DNA 2: CTGAACAATCACCGA
# Assays:
# Test in all cases: FRET titration; 15 C, 25 nM DNA; FRET titration: 10 mM potassium phosphate, 10 mM Tris-HCl, 140 mM KCl, 1 mM EDTA, 1 mM DTT, pH 8.4, 15 C, 25 nM DNA; PGE: 10 nM DNA, 20 nM protein, 0.5x TBE, 4
# Conditions in all cases: protein: recombinant; label: 5'-6-FAM (hexanyl linker) on upper strand; 5'-TAMRA (hexanyl linker) on lower strand; blunt
# [1] = molecular target: SRY HMG box Y72C (Y127C) (Homo sapiens, UniProt Q05066 56-141, Y127C)
# [2] = molecular target: SRY HMG box Y72H (Y127H) (Homo sapiens, UniProt Q05066 56-141, Y127H)
# [3] = molecular target: SRY HMG box Y72F (Y127F) (Homo sapiens, UniProt Q05066 56-141, Y127F)
# Sequence of SRY HMG box Y72F (Y127F) (Q05066 56-141 Y127F): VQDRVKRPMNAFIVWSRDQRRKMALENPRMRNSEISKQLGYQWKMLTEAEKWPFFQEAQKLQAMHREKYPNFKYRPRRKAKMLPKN
# Sequence of SRY HMG box Y72H (Y127H) (Q05066 56-141 Y127H): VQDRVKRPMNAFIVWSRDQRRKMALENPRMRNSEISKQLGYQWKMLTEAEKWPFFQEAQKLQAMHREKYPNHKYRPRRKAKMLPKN
# Sequence of SRY HMG box Y72C (Y127C) (Q05066 56-141 Y127C): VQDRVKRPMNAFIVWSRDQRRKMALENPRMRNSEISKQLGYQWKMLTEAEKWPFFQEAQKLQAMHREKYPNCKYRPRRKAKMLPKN
binder,measurement,setting,value
B1,Kd,[1],21 ± 5 nM
same,Kd,[2],19 ± 4 nM
same,Kd,[3],12 ± 3 nM
